Laboratory results as given in article PMC11096372.

How the values were obtained:
[1] = target: Cas11b, small subunit of the Synechocystis sp. PCC 6714 type I-B Cascade (Synechocystis sp. PCC 6714); test: cryo-EM structure; SEC-purified Cascade with crRNA and a 59-bp ATG-PAM dsDNA target; full R-loop (higher than 3.6 Å) and partial R-loop (3.8 Å) states
[2] = target: Cas7b, backbone subunit of the Synechocystis sp. PCC 6714 type I-B Cascade (Synechocystis sp. PCC 6714); test: as above

A stoichiometry N [1] of 3 was found for “Cas11b, small subunit of the Synechocystis sp. PCC 6714 type I-B Cascade (natural protein)” in this work.
A stoichiometry N [2] of 7 was found for “Cas7b, backbone subunit of the Synechocystis sp. PCC 6714 type I-B Cascade (natural protein)” in this work.
